Experimental data taken from patent US20210095028A1 (NANJING LEGEND BIOTECH, published 2021).

T1: human TIGIT over-expressed on cells (human, UniProt Q495A1 22-244)
T1 construct: also called CHO-K1/human TIGIT cells; CHO cells expressing human TIGIT
T1 sequence: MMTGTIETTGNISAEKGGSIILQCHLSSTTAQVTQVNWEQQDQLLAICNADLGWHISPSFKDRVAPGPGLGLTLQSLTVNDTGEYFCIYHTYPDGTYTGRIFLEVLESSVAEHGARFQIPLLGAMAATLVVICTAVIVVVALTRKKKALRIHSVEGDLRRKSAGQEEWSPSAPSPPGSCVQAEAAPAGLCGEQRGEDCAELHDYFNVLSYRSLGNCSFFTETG

T2: Human TIGIT protein with HIS tag (human, UniProt Q495A1 22-141)
T2 construct: A soluble analyte is probably only the extracellular part; also called human TIGIT recombinant protein; not shown: HIS tag
T2 sequence: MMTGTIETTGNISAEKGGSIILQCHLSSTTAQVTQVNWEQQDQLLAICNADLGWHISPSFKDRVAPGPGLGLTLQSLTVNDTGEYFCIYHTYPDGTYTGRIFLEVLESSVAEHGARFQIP


Tests used:
[1] = molecular target: T1, human TIGIT over-expressed on cells; assay: FACS, CHO-K1 cells over-expressing human TIGIT
Procedure: (§1) The mixture was equilibrated for 30 minutes at room temperature and washed three times with FACS buffer (PBS containing 1% BSA). iFluor labeled goat anti-mouse IgG as the secondary antibody was added and incubated at room temperature for 45 min. Finally, the cells were washed 3 time with PBS, and the signal was read by FACS BD Calibur. Data was analyzed with PRISM™ (GraphPad Software, San Diego, Calif.) using non-linear regression and EC₅₀ values were calculated.

[2] = molecular target: T2, Human TIGIT protein with HIS tag; assay: SPR Biacore T200; antibody Fc-captured, TIGIT-His analyte
Procedure: Binding kinetics of mouse anti-human TIGIT monoclonal antibodies to human TIGIT were determined using a Surface Plasmon Resonance (SPR) biosensor, BIACORE® T200 (GE Healthcare; Little Chalfont, United Kingdom). […] Each mouse anti-human TIGIT monoclonal antibody was immobilized on the sensor chip through the Fc capture method. Human TIGIT protein with HIS tag was used as the analyte. The dissociation (kd) and association (kₐ) rate constants were obtained using the BIACORE® T200 evaluation software. The apparent equilibrium dissociation constants (KD) were calculated from the ratio of kd over kₐ.

[3] = molecular target: T1, human TIGIT over-expressed on cells; assay: competition FACS, CHO cells expressing human TIGIT; competitor PVR recombinant protein
Procedure: The mixture was equilibrated for 30 minutes at room temperature, and washed three times with FACS buffer (PBS containing 1% BSA). PE/Cy5 Streptavidin secondary antibody was then added to the mixtures and incubated for 15 minutes at room temperature. Subsequently, the cells were washed with FACS buffer and analyzed by flow cytometry. Data was analyzed with PRISM™ (GraphPad Software, San Diego, Calif.) using non-linear regression, and IC₅₀ values were calculated (FIGS. 4A-4B and Table 6).

[4] = molecular target: T3, cynomolgus TIGIT over-expressed on CHO-K1 cells (cynomolgus, UniProt A0A7N9I9V4 89-312); assay: FACS, CHO-K1 cells over-expressing cynomolgus TIGIT
T3 construct: whole, on cells; also called CHO-K1/cynomolgus TIGIT cells
T3 sequence (A0A7N9I9V4 entry or part of it): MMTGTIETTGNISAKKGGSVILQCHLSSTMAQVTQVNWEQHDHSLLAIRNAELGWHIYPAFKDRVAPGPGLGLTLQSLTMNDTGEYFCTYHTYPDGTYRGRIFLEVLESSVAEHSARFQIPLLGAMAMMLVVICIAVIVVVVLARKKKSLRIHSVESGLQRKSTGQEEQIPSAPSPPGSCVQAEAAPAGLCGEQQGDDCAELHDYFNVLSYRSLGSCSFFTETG
Procedure: as §1

[5] = molecular target: T1, human TIGIT over-expressed on cells; assay: cell-based or functional assay
[6] = molecular target: T1, human TIGIT over-expressed on cells; assay: cell-based or functional assay; remark: listed apart in the source

Binder	Bottom (best-fit) [1]	EC50 [1] [nM]	Top (best-fit) [1]	Kd [2] [nM]	koff [2] [s⁻¹]	kon [2] [M⁻¹ s⁻¹]	Bottom (best-fit) [3]	IC50 [3] [nM]	Top (best-fit) [3]	Bottom (best-fit) [4]	EC50 [4] [nM]	Top (best-fit) [4]	luciferase signal in T cell activation, Bottom (best-fit) [5]	luciferase signal in T cell activation, EC50 [5] [nM]	luciferase signal in T cell activation, Top (best-fit) [5]	IL-2 secretion in T cell activation, Bottom (best-fit) [6]	IL-2 secretion in T cell activation, EC50 [6] [nM]	IL-2 secretion in T cell activation, Top (best-fit) [6]
8F2D8E7 (antibody, V domains shown, Mouse monoclonal antibody; also called mouse anti-human TIGIT monoclonal antibody 8F2D8E7) VH: QVQLQQSGAELVKPGASVKLSCKTSGYTFTSYWIQWIKQRPGQGLGWIGEIFPGTGTTYYNEKFKGKATLTIDTSSSTAYMQLSSLTSEDSAVYSCARSRDGKVVDYWGQGTSVTVSS VL: DVQMTQTTSSLSASLGDRVTISCRASQDISNFLNWYQQRPDGTVKLLIYYTSKLHSGVPSRFSGSGSGTDYSLTIRNLEKEDIATYFCQQGNTPPYTFGGGTKLEIK	12.9	1.28	276	2.6	0.0033	1.3e+06	11.2	0.9	131	–	–	–	–	–	–	–	–	–
48B5G4E12 (antibody, V domains shown, Mouse monoclonal antibody; also called mouse anti-human TIGIT monoclonal antibody 48B5G4E12) VH: QVQLQQPGAELVKPGASVKMSCKASGYTFTSYNMHWVKQTPGQGLEWIGGIYPGNGATSYNQKFKGKATLTADKSSSTAYMQLSSLTSEDSAVYYCARSGLRAMDYWGQGTSVTVSS VL: QIVLTQSPAIMSASPGEKVTMTCSASSSVSYMYWYQQKTGSSPRLLIYDTSNLASGVPVRFSGSGSGTSYSLTISRMEAEDAATYYCQQWSSYPYTFGGGTKLEIK	9.18	3.15	346	11	0.0088	840000	64.6	1.6	132	–	–	–	–	–	–	–	–	–
100C4E7D11 (antibody, V domains shown, Mouse monoclonal antibody; also called mouse anti-human TIGIT monoclonal antibody 100C4E7D11) VH: EVMLVESGGGLVKPGGSLKLSCAASGFTFSFYTMSWVRQTPEKRLEWVATISSGGGSTYYSDSVKGRFTISRDNAKNNLYLQMTSLRSEDTALYYCSRSLPVDYWGQGTTLTVSS VL: QIVLTQSPAIMSASLGERVTMTCTASSSVSSTYLHWYQQKPGSSPKLWIYSTSNLASGVPARFSGSGSGTSYSLTISSMEAEDAATYYCHLYHHSPYTFGGGTKLEIK	14	0.81	107	0.51	0.00033	650000	12.9	1.2	66.5	16.9	1.16	410	11.6	3.46	117	107	0.98	191
11D8E12A4 (antibody, V domains shown, Mouse monoclonal antibody; also called mouse anti-human TIGIT monoclonal antibody 11D8E12A4) VH: EVLLQQSGPELVKPGASVKIPCKASGYTFTDYNMDWVKQSHGKSLEWIGDINPNNGGTIYNQKFKGKATLTVDKSSSTAYMELRSLTSEDTAVYYCARRWLLLVYTMDYWGQGTSVTVSS VL: QIVLTQSPAIMSASPGEKVTISCSASSSVSYMYWYQQKPGSSPKPWIYRTSNLASGVPARFSGSGSGTSYSLTISSMEAEDAATYYCHQYHNYPPTFGGGTKLEIK	8.3	16.3	159	14	0.0087	640000	21.2	73.5	108	–	–	–	–	–	–	–	–	–
16F10H12C11 (antibody, V domains shown, Mouse monoclonal antibody; also called mouse anti-human TIGIT monoclonal antibody 16F10H12C11) VH: EVLLQQSGPELVKPGASVKIPCKASGYTFTDYNIDWVKQSHGKSLEWIGDINPNTGGTIYNQKFKGKATLTVDKSSSTAYMELRSLTSEDTAVYYCARRWLLLVYAVDYWGQGTSVTVSS VL: QIVLTQSPAIMSASPGEKVTISCSASSSVTYMYWYQQKAGSSPKPWIYRTSNLASGVPARFGGSGSGTSYSLTISSMEAEDAATYYCQQYHSFPPTFGGGTKLEIK	6.83	11.2	188	18	1.2	6.7e+07	–	–	–	–	–	–	–	–	–	–	–	–

More lines, now with the values ahead:

Bottom (best-fit) [1]	EC50 [1] [nM]	Top (best-fit) [1]	Kd [2] [nM]	koff [2] [s⁻¹]	kon [2] [M⁻¹ s⁻¹]	Bottom (best-fit) [3]	IC50 [3] [nM]	Top (best-fit) [3]	Bottom (best-fit) [4]	EC50 [4] [nM]	Top (best-fit) [4]	luciferase signal in T cell activation, Bottom (best-fit) [5]	luciferase signal in T cell activation, EC50 [5] [nM]	luciferase signal in T cell activation, Top (best-fit) [5]	IL-2 secretion in T cell activation, Bottom (best-fit) [6]	IL-2 secretion in T cell activation, EC50 [6] [nM]	IL-2 secretion in T cell activation, Top (best-fit) [6]	Binder
13.8	0.37	89.9	3	0.0062	2.1e+06	10.4	0.7	73.8	7.6	18.5	53.8	–	–	–	–	–	–	139E2C2D2 (antibody, V domains shown, Mouse monoclonal antibody; also called mouse anti-human TIGIT monoclonal antibody 139E2C2D2) VH: EVQLVESGGDLVKPGGSLKLSCAASGFTFSSYGMSWVRQTPDKRLEWVAIISSGGNYTYYPDSVKGRFTISRDNAKNTLYLQMSSLKSEDTAMYYCARQIHYFFAMDYWGQGTSVTVSS VL: DIQMTQSPASLSVSVGETVTITCRASENIYSNLAWYQQKQGKSPQLLVYAATNLADGAPSRFSGSRSGTQYSLKINSLQSEDFGSYYCQHFWGTAYTFGGGTKLEIK
9.57	0.68	115	0.7	0.00043	610000	12.9	0.7	70.2	16.1	1	326	9.6	4.4	145	104	0.83	171	83G6H11C12 (antibody, V domains shown, Mouse monoclonal antibody; also called mouse anti-human TIGIT monoclonal antibody 83G6H11C12) VH: EVMLVESGGGLVKPGGSLKLSCAASGFTFSFYTMSWVRQTPEKRLEWVATISSGGGSTYYSDSVKGRFTISRDNAKNNLYLQMTSLRSEDTALYYCSRSLPVDYWGQGTTLTVSS VL: QIVLTQSPAIMSASLGERVTMTCTASSSVSSSYLHWYQQKPGSSPKLWIYSTSNLASGVPARFSGSGSGTSYSLTISSMEAEDAATYYCHLYHHSPYTFGGGTKLEIK
16.2	0.3	98.7	6.7	0.008	1.2e+06	8.8	1.1	69.7	7.5	8.38	66.2	4.5	8.54	99	–	–	–	128E3G7F5 (antibody, V domains shown, Mouse monoclonal antibody; also called mouse anti-human TIGIT monoclonal antibody 128E3G7F5) VH: EVLLQQSGPELVKTGASVKISCKASGYSFTAYYMHWVKQSHGKSLEWIGYISCYNGATTYNQKFKGKATFTVDTSSTTAYMQFNSLTSEDSAVYYCARRVYYGYDEALVYWGQGTSVTVSS VL: DIVMTQSPSSLSVSAGEKVTMTCKSSQSLLNSGNQKNYLAWYQQKPGQPPKLLIYGASTRGSGVPDRFTGSGSGTDFTLTISSVQAEDLAVYYCQNDHSYPYTFGGGTKLEIK
11	0.96	263	5.2	0.0044	860000	19.6	0.7	113	–	–	–	–	–	–	–	–	–	70A11A8E6 (antibody, V domains shown, Mouse monoclonal antibody; also called mouse anti-human TIGIT monoclonal antibody 70A11A8E6) VH: DVQLQESGPGLVKPSQSLSLTCTVTGYSITSDYAWNWIRQFPGNKLEWMGYIIYSGSTSYNPSLKSRISITRDTSKNQFFLQLNSVTTEDTATYYCARGWFRRPDYWGQGTTLTVSS VL: DIVMTQSHEFMSTSLGDRVSITCKASQDVSTAVAWHQQKPGQSPKQLIYSASYRYTGVPDRFTGSGSGTDFTFTISNMQAEDLAVYYCQQHYSVPLTFGAGTKLELK
